Source: US20240239894A1 (AstraZeneca / MedImmune, published 2024)

T1: cynomolgus monkey B7-H4 on cells (cynomolgus monkey, UniProt A0A2K5U6P5 25-282)
T1 sequence: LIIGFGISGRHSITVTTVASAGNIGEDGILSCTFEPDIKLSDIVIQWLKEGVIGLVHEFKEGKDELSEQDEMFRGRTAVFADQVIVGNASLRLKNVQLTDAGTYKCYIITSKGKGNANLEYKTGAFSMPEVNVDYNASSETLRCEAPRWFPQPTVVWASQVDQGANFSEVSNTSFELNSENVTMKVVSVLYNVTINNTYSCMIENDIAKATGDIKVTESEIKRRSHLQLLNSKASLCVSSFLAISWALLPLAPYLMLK

T2: Human B7H4 (ECD) Fc TM 6H (human, UniProt Q7Z7D3)
T2 construct: ECD, native leader
T2 sequence (Q7Z7D3 whole entry, looked up): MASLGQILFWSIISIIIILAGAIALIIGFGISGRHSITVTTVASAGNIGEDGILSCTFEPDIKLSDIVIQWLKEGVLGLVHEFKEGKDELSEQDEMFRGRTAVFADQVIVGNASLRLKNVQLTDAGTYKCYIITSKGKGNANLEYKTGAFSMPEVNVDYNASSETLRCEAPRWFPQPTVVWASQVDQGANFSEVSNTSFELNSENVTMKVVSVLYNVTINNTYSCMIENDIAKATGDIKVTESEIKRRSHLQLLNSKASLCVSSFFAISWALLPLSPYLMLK

B1: E02-GL-SG3249 (antibody, human IgG1, kappa)
heavy: QVQLQQWGAGLLKPSETLSLACTVYGGSFSGYYWNWIRQPPGKGLEWIGEINHSGSTSYNPSLKSRVTISVDTSKNQFSLKLSSVTAADTAVYYCARVLYNWNVDSWGQGTLVTVSSASTKGPSVFPLAPSSKSTSGGTAALGCLVKDYFPEPVTVSWNSGALTSGVHTFPAVLQSSGLYSLSSVVTVPSSSLGTQTYICNVNHKPSNTKVDKRVEPKSCDKTHTCPPCPAPELLGGPSCVFLFPPKPKDTLMISRTPEVTCVVVDVSHEDPEVKFNWYVDGVEVHNAKTKPREEQYNSTYRVVSVLTVLHQDWLNGKEYKCKVSNKALPAPIEKTISKAKGQPREPQVYTLPPSREEMTKNQVSLTCLVKGFYPSDIAVEWESNGQPENNYKTTPPVLDSDGSFFLYSKLTVDKSRWQQGNVFSCSVMHEALHNHYTQKSLSLSPGK
light: DIQMTQSPSSLSASVGDRVTITCRASQDIRNDVGWYQQKPGKAPKRLIYAASRLQSGVPSRFSGSGSGTEFTLTISSLQPEDFATYYCLQHNSYPRTFGQGTKVEIKRTVAAPSVFIFPPSDEQLKSGTASVVCLLNNFYPREAKVQWKVDNALQSGNSQESVTEQDSKDSTYSLSSTLTLSKADYEKHKVYACEVTHQGLSSPVTKSFNRGEC
modifications: pyrrolobenzodiazepine SG3249 conjugated at the inserted cysteine of the Maia backbone
B2: E02-maia (ZY0EQD_E02, wildtype, Maia format human IgG1) (antibody, V domains shown)
VH: QVQLQQWGAGLLKPSETLSLTCAVYGGSFSGYYWNWIRQPPGKGLEWIGEINHSGSTSYNPSLKSRVTISVDTSKNQFSLKLSSVTAADTAVYYCARVLYNWNVDSWGQGTLVTVSS
VL: DIQMTQSPSSLSASVGDRVTITCRASQDIRNDVGWYQQKPGKAPKRLIYAASRLQSGVPSRFSGSGSGTEFTLTISSLQPEDFATYYCLQHNSYPRTFGQGTKVEIKR
notes: built here from VH 33 and the Maia constant region 41

Key:
[1] = biological target: T1, cynomolgus monkey B7-H4 on cells; assay: cell-based or functional assay
[2] = biological target: T2, Human B7H4 (ECD) Fc TM 6H; assay: ELISA, absorbance 450 nm, Human B7H4 (ECD) Fc TM 6H; x axis printed as antigen concentration (nM)

Binder	IC50, cytotoxicity on cynomolgus B7-H4 transfected cells [1] [ng/mL]	EC50 (read off the curve) [2] [nM]
B1	0.672	
B2		~10
